The Km is the concentration of substrate that gives half-maximal velocity.

Drawing on article PMC3170560, this text covers Km for one protein.

Substrate in the data set: C=CC1=C(C)C2=Cc3c(C=C)c(C)c4[n]3[Fe]([Cl])[n]3c(c(C)c(CCC(=O)O)c3=CC3=NC(=C4)C(C)=C3CCC(=O)O)=CC1=N2
The experiment in a line: purified protein. The note with it: haemin 1-20 μM, NADPH added to start, 0.1 M HEPES-NaOH pH 7.2.

B1: mBnHO1 (mature BnHO1, haem oxygenase-1) (Brassica napus) (protein)
chain: ATAAEKQKKKRYPGESKGFVEEMRFVAMRLHTKEQAKEGEKETKAPEERPVAKWEPTVEGYLRFLVDSKLVYDTLEEIIGQSTFPTYAEFKNTGLERAEKLDTDLKWFKEQGYEIPEPTATGKKYSQYLKDLADKDPPSFICHFYNIYFAHSAGGRMIGRKVAERILDNRELEFYKWDGDLSELLQNVREKLNKVAEEWTREEKNHCLVGDRESFKYSGEILRLILS
On to B1, for which the Km is 2.52 µM.
